Values quoted from earlier work as cited in PMC9826382.

Molecular target: HOP TPR2A (Homo sapiens) (UniProt P31948)
Test: SPR

Chain of UniProt P31948 (P31948 223-352): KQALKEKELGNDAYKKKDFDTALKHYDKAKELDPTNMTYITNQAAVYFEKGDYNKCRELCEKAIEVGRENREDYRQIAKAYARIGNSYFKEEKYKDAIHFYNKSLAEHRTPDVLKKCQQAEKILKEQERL

Kd: 11 µM
Substance: HSP90 C-terminal peptide
